We go through ten molecules from paper PMC11574021, “CEP192 localises mitotic Aurora-A activity by priming its interaction with TPX2” (The EMBO Journal, 2024).

For series [1], the system named is Aurora-A. Particulars: cited from earlier work; for effect on Aurora-A activity: ADP-Glo based assay, ref Park et al. 2023 Figure 3 F-H. The text has this:
page 22: have elected to test PLK1 localization. In the absence of a direct test, they could nevertheless refer to the observations of Joukov et al. We find that PLK1 localisation is normal in ∆11 cells and have include d this new data (Fig. EV8) -Figure 5A-B: The scheme could be made clearer. Why is CEP192 depicted in blue and grey in panel A, green and grey in panel B (grey in scheme of excision sites). Why not use color consistently? […] We have ch ...
For orientation: ADP-Glo turns the ADP formed in a reaction into a luminescent signal.

For series [2], the target named is T1, human CEP192 468–533 (human, UniProt Q8TEP8 468-533).
T1 construct: also called CEP192_(506-527_F); source: E. coli B834 RIL, purified (HisTrap, TEV cleavage, SEC); for crystallisation co-expressed with Aurora-A^M7KD and co-purified; not shown: His6, N-terminal, cleaved; SUMO, N-terminal, cleaved
T1 sequence (looked up): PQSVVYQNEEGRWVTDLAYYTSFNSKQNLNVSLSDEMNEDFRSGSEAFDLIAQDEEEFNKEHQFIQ
Nature of the series: ITC; 250 μM Aurora-A in the syringe, 25 μM CEP192 construct in the cell; 25 °C; 20 mM tris pH 7.5, 200 mM NaCl, 10% glycerol, 5 mM MgCl2. (Isothermal titration calorimetry measures the heat released or taken up as one component is titrated into another.)

The target in series [3] is T2, Aurora-A^CAKD (Aurora-A kinase domain, aa 122–403 C290A, C393A), unphosphorylated (human, UniProt O14965 122-403, C290A | C393A).
T2 construct: Aurora-A kinase domain, human, residues 122-403, variant lacking surface cysteines; also called Aurora-A 122–403 C290A C393A; unphosphorylated Aurora-A^CAKD; source: E. coli RIL, co-expressed with lambda phosphatase, purified (HisTrap, TEV cleavage, SEC); not shown: His6, N-terminal, cleaved
T2 sequence (looked up): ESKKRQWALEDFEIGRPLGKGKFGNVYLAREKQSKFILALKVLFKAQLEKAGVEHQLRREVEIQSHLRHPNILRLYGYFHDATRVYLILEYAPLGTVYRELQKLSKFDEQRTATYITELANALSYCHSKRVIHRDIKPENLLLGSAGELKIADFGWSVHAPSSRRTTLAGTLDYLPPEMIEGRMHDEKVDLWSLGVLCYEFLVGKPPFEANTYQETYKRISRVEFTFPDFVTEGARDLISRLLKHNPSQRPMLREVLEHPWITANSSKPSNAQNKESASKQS
Nature of the series: fluorescence polarisation; competition: 10 μM unphosphorylated Aurora-A^CAKD preincubated with 100 nM FAM-TPX2 7-43, CEP192 competitor serially diluted; 25 mM HEPES pH 7.5, 150 mM NaCl, 2 mM DTT, 5 mM MgCl2, 0.01% Tween 20. Particulars: both partners purified.

For series [4], the target named is T3, unphosphorylated Aurora-A CAKD (Homo sapiens, UniProt O14965, C290A/C393A).
T3 construct: 10 μM Aurora-A kinase domain (phosphorylated or unphosphorylated C290A C393A 122–403); His (N, cleaved yes); made in house; host or cells: E. coli RIL, co-expressed with lambda phosphatase
T3 sequence (O14965 122-403 C290A/C393A): T2 sequence (looked up)
As to the kind of experiment: Fluorescence anisotropy competition with FAM-CEP192 501-533, unphosphorylated Aurora-A. The format is binding. Particulars: competition with 100 nM FAM-CEP192 501-533, 10 μM unphosphorylated Aurora-A CAKD, n = 3. The procedure: (§1) Assays were performed in 25 mM HEPES pH 7.5, 150 mM NaCl, 2 mM DTT, 5 mM MgCl2, 0.01% Tween 20. For CEP192 and TPX2 competition assays 10 μM Aurora-A kinase domain (phosphorylated or unphosphorylated C290A C393A 122–403) was preincubated on ice with 100 nM FAM-TPX2 7-43 or 100 nM FAM-CEP192 501–533. For TACC3 competition, due to weaker binding, 25 μM Aurora-A kinase domain (phosphorylated or unphosphorylated C290A C393A 122–403) was preincubated with 100 nM FAM-TACC3 522-536. Serial dilutions of competitor (CEP192) were performed in triplicate into a low volume 384-well black plate, before the premixed Aurora-A and tracer were added. A control row included no tracer. Plates were left incubating for 1 h at room temperature before the fluorescence anisotropy was measured using a HIDEX plate reader, with excitation at 485 nm and emission at 535 nm. For direct binding experiments, the assay was performed as above, but the Aurora-A (122–403 C290A C393A or point mutants) was diluted across the plate from high to low concentration, before the addition of 50 nM tracer (FAM-CEP192 501–533) to three replicate rows. Buffer only was added to the control row.
(§2) Fluorescence anisotropy data were processed using Microsoft Excel to calculate intensity and anisotropy using the equation listed in (Yeo et al, [2013]). The IC50 and Kd values were calculated using Origin (OriginLab) where the data fitted to a sigmoid and are summarised in Appendix Table S3.

Series [5] addresses T4, phosphorylated Aurora-A CAKD (Homo sapiens, UniProt O14965, C290A/C393A).
T4 construct: 10 nM Aurora-A 122–403 C290A C393A phosphorylated protein; His (N, cleaved yes); made in house; host or cells: E. coli B834 (no lambda phosphatase)
T4 sequence (O14965 122-403 C290A/C393A): T2 sequence (looked up)
As to the kind of experiment: Fluorescence anisotropy competition with FAM-CEP192 501-533, phosphorylated Aurora-A. The class given is binding. Particulars: competition with 100 nM FAM-CEP192 501-533, 10 μM phosphorylated Aurora-A CAKD, n = 3. As for the experimental part: as §1, §2
(In fluorescence polarisation assays a small probe gives low polarisation when free and higher when bound to something large.)

In series [6] the target is T4, phosphorylated Aurora-A CAKD. As to the kind of experiment: ADP-Glo kinase assay, kemptide substrate. The class given is biochemical. As for the experimental part: Reactions were initiated by the addition of 10 μM ATP and 100 μM kemptide as substrate (Cambridge Bioscience Ltd). The reactions were incubated at room temperature for 60 min before 5 μl was transferred into 5 ul of ADP-Glo Reagent (Promega) in a 384-well low volume low binding plate (Greiner Bio-one). After a further 40 min at room temperature, 10 μl of kinase detection reagent was added to each well, and the reaction was allowed to incubate for an additional 30 min. Luminescence was measured on a HIDEX Sense plate reader (HIDEX) using a 1 s integration time. Control data was subtracted from the luminescence and three repeats were averaged before being fitted to a sigmoidal plot using Origin (OriginLab), where IC50 and EC50 values were calculated.

The target in series [7] is T2, Aurora-A^CAKD (Aurora-A kinase domain, …). Nature of the series: fluorescence polarisation; competition: 25 μM Aurora-A kinase domain preincubated with 100 nM FAM-TACC3 522-536, CEP192 competitor serially diluted; 25 mM HEPES pH 7.5, 150 mM NaCl, 2 mM DTT, 5 mM MgCl2, 0.01% Tween 20. Particulars: both partners purified.

Residue numbers refer to the chain shown, from its start. Numbers in names are those of the source. Where no end group is shown, it is not given here. FAM = 5(6)-carboxyfluorescein

“CEP192 506-536: short CEP192 fragment used by Park et al 2023 (EDFRSGSEAFDLIAQDEEEFNKEHQFIQEEN; UniProt Q8TEP8 506-536, looked up, fragment)”: the “effect on Aurora-A activity” value in series [1] is listed as “no effect seen”.
What is called Kd is the free concentration of one partner at which half of the binding sites on the other are occupied at equilibrium, for simple one-to-one binding. A low value points to tighter binding. What is called stoichiometry N is a count of units in the complex or per binding partner. In series [2], “Aurora-A^KD F165D/R205A (Aurora-A 122–403 R205A F165D) (from UniProt O14965 122-403) (domain or fragment)” showed a dissociation constant Kd of 26 µM and a stoichiometry N of 0.87.

B1: FAM-TPX2 7-43 (peptide, UniProt Q9ULW0 7-43, looked up)
peptide: {FAM}-SYSYDAPSDFINFSSLDDEGDTQNIDSWFEEKANLEN
notes: TPX2, residues 7-43; Made on Rink amide resin and labelled on resin after synthesis, so N-terminal label and C-terminal amide are likely; source: synthetic peptide
Turning to B1, the binding result in series [3] is on record as “binds”.

B2: CEP192 468-533 Y487A/F490A: CEP192 468-533 mutant, two F-pocket residues replaced with alanine (protein)
chain: T1 sequence (looked up) with Y20A, F23A
modifications: left off: His6, N-terminal, cleaved | SUMO, N-terminal, cleaved
notes: CEP192 468-533 mutant, two F-pocket residues replaced with alanine
What is called IC50 is the concentration that gives 50% inhibition. Higher therefore signals lower potency. As to B2, the IC50 in series [4] was 6.9 µM; in series [5] it was 5.39 µM; in series [6] (10 nM phosphorylated Aurora-A CAKD, 10 μM ATP, 100 μM kemptide, 60 min, n = 3) it was over 1 µM. Besides, the “effect on Aurora-A kinase activity” value in series [6] (ADP-Glo, phosphorylated Aurora-A CAKD, kemptide, in words) is “less potent and less complete”.

B3: CEP192 468-533 F508D/I518D/F525D: CEP192 468-533 triple mutant (protein, UniProt Q8TEP8 468-533, looked up, variant F508D I518D F525D)
chain: T1 sequence (looked up) with F41D, I51D, F58D
In the case of B3, the IC50 in series [4] and in series [5] was over 10 µM in each case.

B4: CEP192 468-533 F490D/F508D/I518D: CEP192 468-533 variant replacing hydrophobic residues recognising two regions of N-lobe (protein)
chain: T1 sequence (looked up) with F23D, F41D, I51D
modifications: left off: His6, N-terminal, cleaved | SUMO, N-terminal, cleaved
notes: CEP192 468-533 variant replacing hydrophobic residues recognising two regions of N-lobe
For the molecule B4, the half-inhibitory concentration (IC50) in series [4] and in series [5] was over 10 µM throughout.

B5: CEP192 521-757: recombinant GST-tagged CEP192 521-757 with the Xenopus CEP192 binding site (Joukov et al 2010) (protein, UniProt Q8TEP8 521-757, looked up, fragment)
chain: DEEEFNKEHQFIQEENIDAHNTSVALGDTSWGATINYSLLRKSRSTSDLDKDDASYLRLSLGEFFAQRSEALGCLGGGNNVKRPSFGYFIRSPEKREPIALIRKSDVSRGNLEKEMAHLNHDLYSGDLNEQSQAQLSEGSITLQVEAVESTSQVDENDVTLTADKGKTEDTFFMSNKPQRYKDKLPDSGDSMLRISTIASAIAEASVNTDPSQLAAMIKALSNKTRDKTFQEDEKQK
modifications: GST tag
As to B5, the “effect on Maskin/TACC3 phosphorylation by Aurora-A” value in series [1] (Xenopus egg extract, ref Joukov et al. (2010) Figure 4C) is recorded as “lower levels of Maskin/TACC3 phosphorylation”. In series [1] (recombinant GST-tagged CEP192, western blot, ref Joukov et al. (2010) Figure 3G), the “effect on Aurora-A autophosphorylation at Thr288 and Histone H3 phosphorylation” value is “prevents autophosphorylation of Aurora-A at Thr288”.

B6: CEP192 1-995: longer CEP192 fragment used by Park et al 2023 (protein, UniProt Q8TEP8 1-995, looked up, fragment)
chain: MEDFRGIAEESFPSFLTNSLFGNSGILENVTLSSNLGLPVAVSTLARDRSSTDNRYPDIQASYLVEGRFSVPSGSSPGSQSDAEPRERLQLSFQDDDSISRKKSYVESQRLSNALSKQSALQMETAGPEEEPAGATESLQGQDLFNRASPLEQAQDSPIDFHLQSWMNNKEPKIVVLDAGKHFEDKTLKSDLSHTSLLENEKLILPTSLEDSSDDDIDDEMFYDDHLEAYFEQLAIPGMIYEDLEGPEPPEKGFKLPTNGLRQANENGSLNCKFQSENNSSLISLDSHSSETTHKESEESQVICLPGTSNSIGTGDSRRYTDGMLPFSSGTWGTEKEIENLKGIVPDLNSECASKDVLVKTLRAIDVKLNSDNFHDANANRGGFDLTDPVKQGAECPHQNKTVLHMDGCLDTETPTVSIQENVDVASLKPISDSGINFTDAIWSPTCERRTCECHESIEKNKDKTDLPQSVVYQNEEGRWVTDLAYYTSFNSKQNLNVSLSDEMNEDFRSGSEAFDLIAQDEEEFNKEHQFIQEENIDAHNTSVALGDTSWGATINYSLLRKSRSTSDLDKDDASYLRLSLGEFFAQRSEALGCLGGGNNVKRPSFGYFIRSPEKREPIALIRKSDVSRGNLEKEMAHLNHDLYSGDLNEQSQAQLSEGSITLQVEAVESTSQVDENDVTLTADKGKTEDTFFMSNKPQRYKDKLPDSGDSMLRISTIASAIAEASVNTDPSQLAAMIKALSNKTRDKTFQEDEKQKDYSHVRHFLPNDLEKSNGSNALDMEKYLKKTEVSRYESALENFSRASMSDTWDLSLPKEQTTQDIHPVDLSATSVSVRAPEENTAAIVYVENGESENQESFRTINSSNSVTNRENNSAVVDVKTCSIDNKLQDVGNDEKATSISTPSDSYSSVRNPRITSLCLLKDCEEIRDNRENQRQNECVSEISNSEKHVTFENHRIVSPKNSDLKNTSPEHGGRGSEDEQESFRPSTSPLSHSS
Take B6: the “effect on Aurora-A activity” value in series [1] is listed as “no effect seen”.

B7: FAM-TACC3 522-536 (peptide, UniProt Q9Y6A5 522-536, looked up)
peptide: {FAM}-EESFRDPAEVLGTGA
notes: Made on Rink amide resin and labelled on resin after synthesis, so N-terminal label and C-terminal amide are likely; source: synthetic peptide
On to B7, for which the binding result in series [7] is given as “binds”.

B8: CEP192 501–533 peptide (unlabelled) (peptide, UniProt Q8TEP8 501-533, looked up)
peptide: SDEMNEDFRSGSEAFDLIAQDEEEFNKEHQFIQ
notes: Probably synthesised as the labelled peptides (Rink amide resin); source: peptide
In series [7], B8 registered an IC50 of 29 µM.
